According to PMC11830813:

Target: Fc-tagged CD147 (UniProt P35613)
UniProt P35613, sequence (P35613 138-325): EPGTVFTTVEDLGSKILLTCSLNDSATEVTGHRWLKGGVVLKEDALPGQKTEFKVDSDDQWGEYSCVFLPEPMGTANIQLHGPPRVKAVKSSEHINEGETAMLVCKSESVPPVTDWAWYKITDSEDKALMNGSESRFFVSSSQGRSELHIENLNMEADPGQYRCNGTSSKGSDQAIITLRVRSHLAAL

Substance: recombinant human cyclophilin B (from UniProt P23284 34-216) (natural protein)
- SARS-CoV-2 uptake by human monocytes (N protein RNA by RT-qPCR, 24 hpi) after pretreatment with recombinant human CypA and CypB together (each 10 µg/ml) as a decoy; CD147 endogenous on the monocytes (fold decrease): 2.7
